Test results taken from article doi:10.1101/2023.05.03.539133 (bioRxiv, 2023).

Tests used:
[1] = molecular target: the molecule itself; test: SEC
[2] = molecular target: the molecule itself; test: AUC

B1: inner membrane cytochrome c ImcH from Geobacter sulfurreducens (recombinant, C-terminal 6x His-tag) (natural protein, UniProt Q747K6 1-507, looked up)
chain: MTLRKTAGYLWNPISLIGFLLAVVATGLIIAFIAMEMITGIDHPYIGLLVYFAFPGMLILGLILVPIGAWRVRNQRRTEVPEEVPPYPRVDFNDPHKRRLFIFFVLASVIFVLIVSVASILGFEFTESTTFCGELCHVVMEPEHKAWQGSPHARVKCVECHVGPGAEWYVKAKLSGLRQVWAVLTHSYHFPIATPIENLRPARDTCEQCHWPEKFYSGRQRVFYHYAPNKENTPREINMLIKIGGTPKSPHAMGIHWHIGTEVTYIARDRKRLDIPYVAVKQKDGSIVEYMDTEKPLTREEIAKAEKRRMDCIDCHNRPTHIYRSPAREMDEHIVSGQIDAGLPYIKKVAVEILEQPYKSKEEAHAAIEAKLPEYYAKNFPEVAKVKAAAINQAVAHVKDIYSRNFFPRMKVTWSTYPNHIGHFYTPGCFRCHDGKHKTSTGKIISKDCNMCHEMIGQKGENIPEGKVVKEFVHPADIGDALYNVNCSDCHMAAAEDSAGGEGPGKH
modifications: seven c-type hemes (CXXCH heme binding motifs)
Q: B1 was tested. Which “stoichiometry N” value [1] did it give?
A: 2

Q: And the “stoichiometry N” value [2]?
A: 4
